For 39 variants, abundance fitness results are on record in the Human Domainome abundance scans (Beltran et al. 2025).

B1: Protein maelstrom homolog, residues 3 to 71; numbered along this chain, Q96JY0 (parent)
chain: NRKASRNAYYFFVQEKIPELRRRGLPVARVADAIPYCSSDWALLREEEKEKYAEMAREWRAAQGKDPGP

± gives the uncertainty stated by the source.

The variants in the series derive from B1. Put plainly: abundance fitness (aPCA) (normalised: wild type 0, dead -1); higher = more abundant; growth selection in yeast, the domain comes from the species named. Particulars: Homo sapiens.
Consider NRKASRNAYYFFVQEKCPELRRRGLPVARVADAIPYCSSDWALLREEEKEKYAEMAREWRAAQGKDPGP [I17C], for which the abundance fitness is -0.771 ± 0.23.

Take NRKASRNAYYFFVQEKVPELRRRGLPVARVADAIPYCSSDWALLREEEKEKYAEMAREWRAAQGKDPGP [I17V]: the abundance fitness is -0.166 ± 0.055.

As to NRKASRNAYYFFVQEKYPELRRRGLPVARVADAIPYCSSDWALLREEEKEKYAEMAREWRAAQGKDPGP [I17Y], the abundance fitness was -0.818 ± 0.21.

As to NRKASRNAYYFFVQEKKPELRRRGLPVARVADAIPYCSSDWALLREEEKEKYAEMAREWRAAQGKDPGP [I17K], the abundance fitness is -0.687 ± 0.11.

Turning to NRKASRNAYYFFVQEKGPELRRRGLPVARVADAIPYCSSDWALLREEEKEKYAEMAREWRAAQGKDPGP [I17G], the abundance fitness is -0.503 ± 0.064.

On to NRKASRNAYYFFVQEKNPELRRRGLPVARVADAIPYCSSDWALLREEEKEKYAEMAREWRAAQGKDPGP [I17N], for which the abundance fitness was -0.797 ± 0.21.

Regarding NRKASRNAYYFFVQEKRPELRRRGLPVARVADAIPYCSSDWALLREEEKEKYAEMAREWRAAQGKDPGP [I17R], the abundance fitness is -0.501 ± 0.062.

As to NRKASRNAYYFFVQEKPPELRRRGLPVARVADAIPYCSSDWALLREEEKEKYAEMAREWRAAQGKDPGP [I17P], the abundance fitness is -0.755 ± 0.15.

On to NRKASRNAYYFFVQEKFPELRRRGLPVARVADAIPYCSSDWALLREEEKEKYAEMAREWRAAQGKDPGP [I17F], for which the abundance fitness is -0.323 ± 0.17.

Take NRKASRNAYYFFVQEKHPELRRRGLPVARVADAIPYCSSDWALLREEEKEKYAEMAREWRAAQGKDPGP [I17H]: the abundance fitness was -0.832 ± 0.24.

Turning to NRKASRNAYYFFVQEKMPELRRRGLPVARVADAIPYCSSDWALLREEEKEKYAEMAREWRAAQGKDPGP [I17M], the abundance fitness was -0.241 ± 0.075.

For NRKASRNAYYFFVQEKWPELRRRGLPVARVADAIPYCSSDWALLREEEKEKYAEMAREWRAAQGKDPGP [I17W], the abundance fitness is -0.264 ± 0.07.

As to NRKASRNAYYFFVQEKLPELRRRGLPVARVADAIPYCSSDWALLREEEKEKYAEMAREWRAAQGKDPGP [I17L], the abundance fitness is -0.18 ± 0.075.

Turning to NRKASRNAYYFFVQEKQPELRRRGLPVARVADAIPYCSSDWALLREEEKEKYAEMAREWRAAQGKDPGP [I17Q], the abundance fitness was -0.961 ± 0.2.

Regarding NRKASRNAYYFFVQEKIPVLRRRGLPVARVADAIPYCSSDWALLREEEKEKYAEMAREWRAAQGKDPGP [E19V], the abundance fitness was -0.25 ± 0.06.

As to NRKASRNAYYFFVQEKIPCLRRRGLPVARVADAIPYCSSDWALLREEEKEKYAEMAREWRAAQGKDPGP [E19C], the abundance fitness was -0.548 ± 0.15.

As for NRKASRNAYYFFVQEKIPHLRRRGLPVARVADAIPYCSSDWALLREEEKEKYAEMAREWRAAQGKDPGP [E19H], the abundance fitness was -0.54 ± 0.14.

Consider NRKASRNAYYFFVQEKIPRLRRRGLPVARVADAIPYCSSDWALLREEEKEKYAEMAREWRAAQGKDPGP [E19R], for which the abundance fitness is -0.674 ± 0.058.

As to NRKASRNAYYFFVQEKIPKLRRRGLPVARVADAIPYCSSDWALLREEEKEKYAEMAREWRAAQGKDPGP [E19K], the abundance fitness was -0.686 ± 0.11.

Regarding NRKASRNAYYFFVQEKIPNLRRRGLPVARVADAIPYCSSDWALLREEEKEKYAEMAREWRAAQGKDPGP [E19N], the abundance fitness is -0.966 ± 0.47.

For the variant NRKASRNAYYFFVQEKIPDLRRRGLPVARVADAIPYCSSDWALLREEEKEKYAEMAREWRAAQGKDPGP [E19D], the abundance fitness is -0.093 ± 0.15.

With NRKASRNAYYFFVQEKIPPLRRRGLPVARVADAIPYCSSDWALLREEEKEKYAEMAREWRAAQGKDPGP [E19P], the abundance fitness was -0.733 ± 0.14.

Take NRKASRNAYYFFVQEKIPLLRRRGLPVARVADAIPYCSSDWALLREEEKEKYAEMAREWRAAQGKDPGP [E19L]: the abundance fitness was -0.412 ± 0.067.

Take NRKASRNAYYFFVQEKIPQLRRRGLPVARVADAIPYCSSDWALLREEEKEKYAEMAREWRAAQGKDPGP [E19Q]: the abundance fitness is -0.623 ± 0.13.

As to NRKASRNAYYFFVQEKIPMLRRRGLPVARVADAIPYCSSDWALLREEEKEKYAEMAREWRAAQGKDPGP [E19M], the abundance fitness is -0.303 ± 0.088.

Regarding NRKASRNAYYFFVQEKIPSLRRRGLPVARVADAIPYCSSDWALLREEEKEKYAEMAREWRAAQGKDPGP [E19S], the abundance fitness was -0.204 ± 0.053.

In the case of NRKASRNAYYFFVQEKIKELRRRGLPVARVADAIPYCSSDWALLREEEKEKYAEMAREWRAAQGKDPGP [P18K], the abundance fitness is -0.498 ± 0.11.

Turning to NRKASRNAYYFFVQEKIHELRRRGLPVARVADAIPYCSSDWALLREEEKEKYAEMAREWRAAQGKDPGP [P18H], the abundance fitness is -0.019 ± 0.26.

With NRKASRNAYYFFVQEKIEELRRRGLPVARVADAIPYCSSDWALLREEEKEKYAEMAREWRAAQGKDPGP [P18E], the abundance fitness was -0.306 ± 0.1.

Take NRKASRNAYYFFVQEKIRELRRRGLPVARVADAIPYCSSDWALLREEEKEKYAEMAREWRAAQGKDPGP [P18R]: the abundance fitness was -0.526 ± 0.057.

NRKASRNAYYFFVQEKILELRRRGLPVARVADAIPYCSSDWALLREEEKEKYAEMAREWRAAQGKDPGP [P18L]: the abundance fitness is -0.606 ± 0.1.

For the variant NRKASRNAYYFFVQEKIFELRRRGLPVARVADAIPYCSSDWALLREEEKEKYAEMAREWRAAQGKDPGP [P18F], the abundance fitness was -0.286 ± 0.16.

For NRKASRNAYYFFVQEKIIELRRRGLPVARVADAIPYCSSDWALLREEEKEKYAEMAREWRAAQGKDPGP [P18I], the abundance fitness was -0.452 ± 0.2.

As to NRKASRNAYYFFVQEKITELRRRGLPVARVADAIPYCSSDWALLREEEKEKYAEMAREWRAAQGKDPGP [P18T], the abundance fitness is -0.411 ± 0.074.

Turning to NRKASRNAYYFFVQEKIQELRRRGLPVARVADAIPYCSSDWALLREEEKEKYAEMAREWRAAQGKDPGP [P18Q], the abundance fitness was -0.338 ± 0.094.

For the variant NRKASRNAYYFFVQEKIDELRRRGLPVARVADAIPYCSSDWALLREEEKEKYAEMAREWRAAQGKDPGP [P18D], the abundance fitness was -0.313 ± 0.099.

On to NRKASRNAYYFFVQEKINELRRRGLPVARVADAIPYCSSDWALLREEEKEKYAEMAREWRAAQGKDPGP [P18N], for which the abundance fitness was -0.532 ± 0.15.

With NRKASRNAYYFFVQEKIGELRRRGLPVARVADAIPYCSSDWALLREEEKEKYAEMAREWRAAQGKDPGP [P18G], the abundance fitness was -0.31 ± 0.067.

Take NRKASRNAYYFFVQEKICELRRRGLPVARVADAIPYCSSDWALLREEEKEKYAEMAREWRAAQGKDPGP [P18C]: the abundance fitness is -0.358 ± 0.1.
